The values below come from the Immune Epitope Database (IEDB).

A value given as a limit tells only on which side of the number the result lay.

The target of test [1] is HLA-A*11:01. The experiment in a line: IEDB peptide-MHC binding, purified MHC/competitive/fluorescence; ≥ and ≤ were set here for values at or beyond the usual limits of such assays.
The target of test [2] is HLA-A*03:01. The description is as above.
Test [3] addresses HLA-A*02:01. The description is as above.
For test [4], the target named is HLA-B*15:01. The test is described as follows: IEDB peptide-MHC binding, purified MHC/competitive/fluorescence; filed as Kd, often an IC50 or EC50 that approximates it; ≥ and ≤ were set here for values at or beyond the usual limits of such assays.
Test [5] addresses HLA-B*46:01. The test is described as above.
Test [6] deals with HLA-B*57:01. The description is as above.
In test [7] the target is HLA-B*18:01. The test is described as above.
The target in test [8] is HLA-B*51:01. The description is as above.
Test [9] addresses HLA-B*39:01. The description is as above. The following applies: source organism: Orthohantavirus andesense.
Test [10] addresses HLA-A*69:01. The test is described as above. The following applies: source organism: Orthohantavirus andesense.
Test [11] concerns the target HLA-B*35:01. Described as above. The following applies: source organism: Orthohantavirus andesense.
Test [12] has as its target HLA-A*26:01. Described as above.
For test [13], the target named is HLA-B*15:17. The test is described as above.
Test [14] has as its target HLA-B*27:03. The description is as above.
Test [15] addresses HLA-A*02:01. The test is described as above.
Test [16] concerns the target HLA-A*02:03. The test is described as follows: IEDB peptide-MHC binding, purified MHC/direct/fluorescence; filed as Kd, often an IC50 or EC50 that approximates it; ≥ and ≤ were set here for values at or beyond the usual limits of such assays.
Test [17] has as its target HLA-A*29:02. The description is as above.
For test [18], the target named is HLA-A*03:01. Described as above.
Test [19] addresses HLA-A*02:11. The test is described as above.
Test [20] addresses HLA-A*02:16. The description is as above.
For test [21], the target named is HLA-A*24:03. Described as above.
In test [22] the target is HLA-A*68:02. Described as above.
The target in test [23] is HLA-A*02:19. The test is described as above.
Test [24] has as its target HLA-A*02:12. Described as above.
The target of test [25] is HLA-B*07:02. The description is as above.
Test [26] addresses HLA-A*01:01. The test is described as above.
Test [27] deals with HLA-C*14:02. Described as above.
For test [28], the target named is HLA-B*15:03. The test is described as follows: IEDB peptide-MHC binding, purified MHC/competitive/radioactivity; filed as Kd, often an IC50 or EC50 that approximates it; ≥ and ≤ were set here for values at or beyond the usual limits of such assays. The following applies: source organism: Vaccinia virus WR.
The target in test [29] is HLA-B*15:01. The test is described as follows: IEDB peptide-MHC binding, purified MHC/competitive/fluorescence; ≥ and ≤ were set here for values at or beyond the usual limits of such assays. The following applies: source organism: Vaccinia virus.
For test [30], the target named is HLA-A*24:02. Described as above.
In test [31] the target is HLA-A*29:02. The test is described as follows: IEDB peptide-MHC binding, purified MHC/competitive/fluorescence; filed as Kd, often an IC50 or EC50 that approximates it; ≥ and ≤ were set here for values at or beyond the usual limits of such assays. The note with it: source organism: Entamoeba histolytica HM-1:IMSS.
Test [32] deals with HLA-A*03:01. Described as above. The following applies: source organism: Entamoeba histolytica HM-1:IMSS.
For test [33], the target named is HLA-A*02:19. The test is described as above. The following applies: source organism: Entamoeba histolytica HM-1:IMSS.
The target in test [34] is HLA-B*15:42. Described as above. The note with it: source organism: Orthohantavirus andesense.
The target in test [35] is HLA-B*83:01. The description is as above. The following applies: source organism: Orthohantavirus andesense.
Test [36] has as its target HLA-B*45:06. Described as above. The following applies: source organism: Orthohantavirus andesense.
Test [37] deals with HLA-B*40:01. The experiment in a line: IEDB peptide-MHC binding, purified MHC/direct/fluorescence; filed as Kd, often an IC50 or EC50 that approximates it; ≥ and ≤ were set here for values at or beyond the usual limits of such assays. The note with it: source organism: Orthohantavirus andesense.
The mark [38] stands for this setting: source organism: Sudan ebolavirus.
Where [39] appears, read: source organism: Orthohantavirus andesense.
Setting [40] is: source organism: Mammarenavirus juninense.
[41] abbreviates: source organism: Mycobacterium tuberculosis variant bovis BCG str. Pasteur 1173P2.
Setting [42] is: source organism: Vaccinia virus.
Where [43] appears, read: source organism: Entamoeba histolytica HM-1:IMSS.
Setting [44] is: source organism: Zaire ebolavirus.

The term IC50 denotes the concentration at which inhibition is half-maximal. Regarding ILGSLGLRK, the IC50 is 0.219 µM in test [1] (setting [38]), 0.872 µM in test [2] (setting [38]) and at least 141 µM in [3] (setting [38]).

In general, Kd refers to the concentration at which binding is half-saturated. Regarding KPKALSEAF, the Kd in [4] (setting [39]), in test [5] (setting [39]), in test [6] (setting [39]), in test [7] (setting [39]), in test [8] (setting [39]) and in [9] was at least 20 µM throughout. For the same sequence, the dissociation constant Kd is at least 20 µM in test [10]; 0.0223 µM in test [11]; at least 20 µM in test [12] (setting [39]); at least 20 µM in test [13] (setting [39]); at least 20 µM in test [14] (setting [39]); at least 20 µM in test [15] (setting [39]). Also, the Kd in [16] (source organism: Oran virus), in test [17] (source organism: Oran virus), in test [18] (source organism: Oran virus), in test [19] (source organism: Oran virus), in test [20] (source organism: Oran virus) and in test [21] (source organism: Oran virus) was at least 20 µM throughout. The Kd in test [22] (source organism: Oran virus) was at least 20 µM; in test [23] (source organism: Oran virus), at least 20 µM; in [24] (source organism: Oran virus) it was at least 20 µM; in test [25] (source organism: Oran virus) it was 0.0765 µM.

On to HTEFQTVSF, for which the Kd in test [17] (setting [40]) is at least 20 µM; in [26] (setting [40]) it was 2.29 µM.

The sequence APINSATAM yielded a Kd in test [27] (setting [41]) of 0.321 µM.

As to LLQKYPPPR, the IC50 in test [1] (setting [42]) was 7.75 µM; in test [2] (setting [42]), 4.03 µM; in test [3] (setting [42]), at least 101 µM.

As for SLYPNVCIF, in test [28], the Kd came out at 0.00494 µM. Further, the IC50 in test [29] was 5.7 µM; in test [2] (setting [42]) it was at least 365 µM; in test [30] (setting [42]), 0.0384 µM; in [3] (setting [42]), 1.88 µM.

In the case of YLHIHPFKI, the Kd in [4] (setting [43]), in test [5] (setting [43]), in test [6] (setting [43]), in test [7] (setting [43]), in test [31] and in test [32] was at least 20 µM throughout. Also, the Kd was at least 20 µM in test [8] (setting [43]); at least 20 µM in test [12] (setting [43]); at least 20 µM in [13] (setting [43]); at least 20 µM in test [14] (setting [43]); 0.0061 µM in test [15] (setting [43]); 0.0678 µM in test [33].

As to SIATNLEYK, the IC50 is 0.427 µM in [1] (setting [42]) and 3.98 µM in test [2] (setting [42]).

Turning to LEEDIQHFL, the Kd is at least 20 µM in test [4] (setting [39]); at least 20 µM in [5] (setting [39]); at least 20 µM in [6] (setting [39]); at least 5 µM in [34]; at least 20 µM in test [7] (setting [39]); at least 20 µM in test [8] (setting [39]). Also, the Kd in test [9] was at least 20 µM; in [10], at least 20 µM; in test [12] (setting [39]) it was at least 20 µM; in [35] it was at least 5 µM; in test [13] (setting [39]), at least 20 µM; in test [14] (setting [39]) it was at least 20 µM. The dissociation constant Kd in test [36] was at least 5 µM; in test [15] (setting [39]), at least 20 µM; in test [37], 0.0002 µM; in test [16] (setting [39]), at least 20 µM; in [17] (setting [39]) it was at least 20 µM; in test [18] (setting [39]) it was at least 20 µM. For the same sequence, the Kd in [19] (setting [39]), in test [20] (setting [39]), in test [21] (setting [39]), in test [22] (setting [39]), in test [23] (setting [39]) and in test [24] (setting [39]) was at least 20 µM throughout.

For RTNGASYAY, the Kd was at most 0.001 µM in test [17] (source organism: Mycobacterium tuberculosis str. Haarlem) and 0.199 µM in [26] (source organism: Mycobacterium tuberculosis).

AFLILPQAK: the IC50 in [1] (setting [44]) amounted to 14.1 µM; in test [2] (setting [44]), 20 µM; in test [30] (setting [44]), 26.9 µM.

Turning to APPPFRLPL, the values for the Kd in test [27] (source organism: Mycobacterium tuberculosis H37Rv) and in test [25] (setting [41]) were 0.714 µM and 0.0775 µM, respectively.

IQNVPGPHR: the IC50 in test [1] (setting [44]) was 0.889 µM; in [2] (setting [44]) it was 8.53 µM; in test [30] (setting [44]), 6.86 µM; in test [3] (setting [44]), at least 119 µM.
